Results on 6 sequences are retold here after the Immune Epitope Database (IEDB).

pIC50, pKd: −log10 of the molar value. Some results are limits rather than exact numbers.

The target in test [1] is HLA-C*03:03. Kind of test: IEDB peptide-MHC binding, purified MHC/direct/fluorescence; filed as Kd, often an IC50 or EC50 that approximates it; ≥ and ≤ were set here for values at or beyond the usual limits of such assays. To be noted: source organism: Mus musculus.
Test [2] deals with HLA-B*51:01. Put plainly: IEDB peptide-MHC binding, purified MHC/competitive/fluorescence; ≥ and ≤ were set here for values at or beyond the usual limits of such assays. To be noted: source organism: Mus musculus.
The target in test [3] is HLA-A*02:01. Kind of test: IEDB peptide-MHC binding, purified MHC/competitive/fluorescence; filed as Kd, often an IC50 or EC50 that approximates it; ≥ and ≤ were set here for values at or beyond the usual limits of such assays.
For test [4], the target named is HLA-B*39:01. The test is described as above.
In test [5] the target is HLA-A*69:01. The description is as above.
In test [6] the target is HLA-B*27:03. The description is as above.
Test [7] deals with HLA-B*18:01. Described as above.
For test [8], the target named is HLA-B*46:01. The test is described as above.
Test [9] addresses HLA-A*26:01. Described as above.
The target of test [10] is HLA-B*58:01. Described as above.
Test [11] addresses HLA-B*15:01. The description is as above. The conditions noted are these: source organism: Orthohantavirus andesense.
In test [12] the target is HLA-B*51:01. The description is as above. To be noted: source organism: Orthohantavirus andesense.
Test [13] concerns the target HLA-A*68:02. Kind of test: IEDB peptide-MHC binding, purified MHC/direct/fluorescence; filed as Kd, often an IC50 or EC50 that approximates it; ≥ and ≤ were set here for values at or beyond the usual limits of such assays.
For test [14], the target named is HLA-A*02:12. The test is described as above.
In test [15] the target is HLA-A*03:01. The description is as above.
Test [16] deals with HLA-A*02:03. The test is described as above.
Test [17] deals with HLA-A*02:11. The test is described as above.
Test [18] concerns the target HLA-A*02:16. The test is described as above.
The target of test [19] is HLA-A*02:19. Described as above.
Test [20] addresses HLA-A*02:01. The test is described as above.
In test [21] the target is HLA-B*39:01. The description is as above. To be noted: source organism: Encephalitozoon cuniculi GB-M1.
Test [22] concerns the target HLA-B*57:01. The description is as above. To be noted: source organism: Encephalitozoon cuniculi GB-M1.
Test [23] deals with HLA-B*27:03. The description is as above. The conditions noted are these: source organism: Encephalitozoon cuniculi GB-M1.
The target in test [24] is HLA-B*18:01. Described as above. To be noted: source organism: Encephalitozoon cuniculi GB-M1.
Test [25] concerns the target HLA-B*46:01. The description is as above. To be noted: source organism: Encephalitozoon cuniculi GB-M1.
For test [26], the target named is HLA-A*26:01. Described as above.
For test [27], the target named is HLA-B*07:02. The test is described as above.
The target in test [28] is HLA-B*15:01. The description is as above.
Test [29] addresses HLA-B*51:01. Described as above. The conditions noted are these: source organism: Encephalitozoon cuniculi GB-M1.
The target in test [30] is HLA-B*35:01. The description is as above.
Test [31] deals with HLA-A*69:01. The description is as above. The conditions noted are these: source organism: Escherichia coli O157:H7.
Test [32] deals with HLA-A*11:01. Described as above. To be noted: source organism: Escherichia coli O157:H7.
The target of test [33] is HLA-B*40:01. The test is described as above. To be noted: source organism: Escherichia coli O157:H7.
In test [34] the target is HLA-A*24:03. The test is described as above.
For test [35], the target named is HLA-B*27:05. The description is as above. The conditions noted are these: source organism: Escherichia coli O157:H7.
Test [36] deals with HLA-A*31:01. The test is described as above. The conditions noted are these: source organism: Escherichia coli O157:H7.
Test [37] concerns the target HLA-B*58:01. Described as above. To be noted: source organism: Escherichia coli O157:H7.
The target in test [38] is HLA-B*08:01. Described as above. To be noted: source organism: Escherichia coli O157:H7.
The target of test [39] is HLA-A*01:01. The description is as above. To be noted: source organism: Escherichia coli O157:H7.
Test [40] addresses HLA-B*44:02. The description is as above. The conditions noted are these: source organism: Escherichia coli O157:H7.
Test [41] deals with HLA-A*29:02. The test is described as above. To be noted: source organism: Ebola virus Yambio0403.
The target of test [42] is HLA-A*03:01. Kind of test: IEDB peptide-MHC binding, purified MHC/competitive/fluorescence; filed as Kd, often an IC50 or EC50 that approximates it; ≥ and ≤ were set here for values at or beyond the usual limits of such assays. The conditions noted are these: source organism: Yersinia pestis Nepal516.
The mark [43] stands for this setting: source organism: Orthohantavirus andesense.
The mark [44] stands for this setting: source organism: Orthohantavirus puumalaense.
The mark [45] stands for this setting: source organism: Encephalitozoon cuniculi GB-M1.
Setting [46] is: source organism: Escherichia coli O157:H7.
The mark [47] stands for this setting: source organism: Zaire ebolavirus.
Setting [48] is: source organism: Ebola virus Yambio0403.

As a reminder, the pKd is the Kd on a negative log10 scale, so that one unit is a factor of ten. A word on the pIC50: it is the IC50 on a negative log10 scale, so that one unit is a factor of ten. A higher pIC50 goes with a low IC50.

Consider VALFSSCPV, for which the pKd in test [1] was 8.70. The pIC50 in [2] is 5.73.
Turning to QIQAGNFHW, the pKd in test [3] (setting [43]), in test [4] (setting [43]), in test [5] (setting [43]), in test [6] (setting [43]), in test [7] (setting [43]) and in test [8] (setting [43]) was at most 4.70 in each case. Besides, the pKd in test [9] (setting [43]) is at most 4.70; in [10] (setting [43]), 8.66; in test [11] it was at most 4.70; in test [12], at most 4.70; in test [13] (setting [44]), at most 4.70; in [14] (setting [44]) it was at most 4.70. Moreover, the pKd in [15] (setting [44]), in [16] (setting [44]), in [17] (setting [44]), in test [18] (setting [44]) and in test [19] (setting [44]) was at most 4.70 in each case.
As for SPLPITLKY, the pKd in test [20] (setting [45]), in test [21], in test [13] (setting [45]), in [22], in test [23] and in test [24] was at most 4.70 each time. The pKd in test [14] (setting [45]) was at most 4.70; in test [25], at most 4.70; in test [26] (setting [45]), at most 4.70; in test [27] (setting [45]), 5.35; in [15] (setting [45]) it was at most 4.70; in test [16] (setting [45]) it was at most 4.70. For the same sequence, the pKd in test [28] (setting [45]) is at most 4.70; in [29] it was at most 4.70; in [17] (setting [45]), at most 4.70; in [18] (setting [45]), at most 4.70; in [30] (setting [45]) it was 8.70; in test [19] (setting [45]) it was at most 4.70.
LPEFERRTL: the pKd in [20] (setting [46]), in test [31], in test [32], in test [33], in test [34] (setting [46]) and in test [35] was at most 4.70 throughout. For the same sequence, the pKd is at most 4.70 in [36]; at most 4.70 in test [26] (setting [46]); 7.43 in test [27] (setting [46]); at most 4.70 in test [37]; 5.37 in test [38]; at most 4.70 in test [39]. In addition, the pKd in [15] (setting [46]) was at most 4.70; in test [28] (setting [46]), at most 4.70; in test [40], at most 4.70; in test [30] (setting [46]), 7.79.
For the sequence ESLLHQASW, the pKd in test [3] (setting [47]), in test [4] (setting [47]), in [5] (setting [47]), in [6] (setting [47]), in test [7] (setting [47]) and in test [8] (setting [47]) was at most 4.70 each time. Further, the pKd in test [9] (setting [47]) was at most 4.70; in [10] (setting [47]), 8.68; in [13] (setting [48]) it was at most 4.70; in [14] (setting [48]) it was at most 4.70; in test [34] (setting [48]), at most 4.70; in [15] (setting [48]) it was at most 4.70. Also, the pKd in [16] (setting [48]), in test [28] (setting [47]), in test [17] (setting [48]), in [18] (setting [48]), in [19] (setting [48]) and in test [41] was at most 4.70 each time.
MTTSMTMSY: the pKd is 7.32 in test [10] (source organism: Yersinia pestis Nepal516) and 6.52 in test [42].
